Data as given in patent US20170369595A1 (Hoffmann-La Roche, published 2017).

Target: T1, CD33 (UniProt P20138 18-364, limits assumed)
T1 construct: whole, on cells; Endogenous antigen on Molm13 cells; also called cell surface antigen CD33; CD33-expressing Molm13 cells
Experiment: FACS on CD33-expressing Molm13 cells, Dig-Cy5 as payload
Experimental: Simultaneous antigen binding of the antibodies generated in example 1 was analyzed by FACS analysis on LeY-expressing MCF7 cells, CD33-expressing Molm13 cells and GPC3-expressing HepG2 cells using Dig-Cy5 as payload to address hapten binding.

T1 sequence (P20138 18-364 limits assumed): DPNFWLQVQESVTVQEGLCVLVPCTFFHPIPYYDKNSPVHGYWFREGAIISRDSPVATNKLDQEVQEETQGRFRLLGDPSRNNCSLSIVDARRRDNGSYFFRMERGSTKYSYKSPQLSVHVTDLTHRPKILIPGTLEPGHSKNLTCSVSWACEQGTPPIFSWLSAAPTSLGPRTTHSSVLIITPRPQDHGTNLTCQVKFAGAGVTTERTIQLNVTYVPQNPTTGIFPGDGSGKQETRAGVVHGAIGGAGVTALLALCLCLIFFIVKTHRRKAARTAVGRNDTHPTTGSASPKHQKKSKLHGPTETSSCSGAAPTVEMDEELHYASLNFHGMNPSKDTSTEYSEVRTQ

B1: BsAb Dig-CD33-Dig (bispecific antibody)
light: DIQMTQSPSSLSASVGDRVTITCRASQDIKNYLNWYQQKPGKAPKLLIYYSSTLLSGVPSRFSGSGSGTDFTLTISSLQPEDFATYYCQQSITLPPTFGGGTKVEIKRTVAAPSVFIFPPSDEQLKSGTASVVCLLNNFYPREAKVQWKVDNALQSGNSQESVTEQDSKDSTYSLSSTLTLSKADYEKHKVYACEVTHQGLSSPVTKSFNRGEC
heavy 1: QVQLVESGGGLVKPGGSLRLSCAASGFTFSDYAMSWIRQAPGKGLEWVSSINIGATYIYYADSVKGRFTISRDNAKNSLYLQMNSLRAEDTAVYYCARPGSPYEYDKAYYSMAYWGQGTTVTVSSASTKGPSVFPLAPSSKSTSGGTAALGCLVKDYFPEPVTVSWNSGALTSGVHTFPAVLQSSGLYSLSSVVTVPSSSLGTQTYICNVNHKPSNTKVDKKVEPKSCGGGGSGGGGSGGGGSGGGGSEVQLVQSGAEVKKPGSSVKVSCKASGYTITDSNIHWVRQAPGQSLEWIGYIYPYNGGTDYNQKFKNRATLTVDNPTNTAYMELSSLRSEDTAFYYCVNGNPWLAYWGQGTLVTVSSGQPREPQVYTLPPCRDELTKNQVSLWCLVKGFYPSDIAVEWESNGQPENNYKTTPPVLDSDGSFFLYSKLTVDKSRWQQGNVFSCSVMHEALHNHYTQKSLSLSPGK
heavy 2: QVQLVESGGGLVKPGGSLRLSCAASGFTFSDYAMSWIRQAPGKGLEWVSSINIGATYIYYADSVKGRFTISRDNAKNSLYLQMNSLRAEDTAVYYCARPGSPYEYDKAYYSMAYWGQGTTVTVSSASTKGPSVFPLAPSSKSTSGGTAALGCLVKDYFPEPVTVSWNSGALTSGVHTFPAVLQSSGLYSLSSVVTVPSSSLGTQTYICNVNHKPSNTKVDKKVEPKSCGGGGSGGGGSGGGGSGGGGSDIQLTQSPSTLSASVGDRVTITCRASESLDNYGIRFLTWFQQKPGKAPKLLMYAASNQGSGVPSRFSGSGSGTEFTLTISSLQPDDFATYYCQQTKEVPWSFGQGTKVEVKGQPREPQVCTLPPSRDELTKNQVSLSCAVKGFYPSDIAVEWESNGQPENNYKTTPPVLDSDGSFFLVSKLTVDKSRWQQGNVFSCSVMHEALHNHYTQKSLSLSPGK
notes: Trivalent, bispecific; no CH2; (Gly4Ser)4 connectors; In the FACS assay it carried Dig-Cy5 as payload
B1: binds.

B2: BsAb CD33-Dig(SS)-CD33 (bispecific antibody)
light: DIQLTQSPSTLSASVGDRVTITCRASESLDNYGIRFLTWFQQKPGKAPKLLMYAASNQGSGVPSRFSGSGSGTEFTLTISSLQPDDFATYYCQQTKEVPWSFGQGTKVEVKRTVAAPSVFIFPPSDEQLKSGTASVVCLLNNFYPREAKVQWKVDNALQSGNSQESVTEQDSKDSTYSLSSTLTLSKADYEKHKVYACEVTHQGLSSPVTKSFNRGEC
heavy 1: EVQLVQSGAEVKKPGSSVKVSCKASGYTITDSNIHWVRQAPGQSLEWIGYIYPYNGGTDYNQKFKNRATLTVDNPTNTAYMELSSLRSEDTAFYYCVNGNPWLAYWGQGTLVTVSSASTKGPSVFPLAPSSKSTSGGTAALGCLVKDYFPEPVTVSWNSGALTSGVHTFPAVLQSSGLYSLSSVVTVPSSSLGTQTYICNVNHKPSNTKVDKKVEPKSCGGGGSGGGGSGGGGSGGGGSQVQLVESGGGLVKPGGSLRLSCAASGFTFSDYAMSWIRQAPGKCLEWVSSINIGATYIYYADSVKGRFTISRDNAKNSLYLQMNSLRAEDTAVYYCARPGSPYEYDKAYYSMAYWGQGTTVTVSSGQPREPQVYTLPPCRDELTKNQVSLWCLVKGFYPSDIAVEWESNGQPENNYKTTPPVLDSDGSFFLYSKLTVDKSRWQQGNVFSCSVMHEALHNHYTQKSLSLSPGK
heavy 2: EVQLVQSGAEVKKPGSSVKVSCKASGYTITDSNIHWVRQAPGQSLEWIGYIYPYNGGTDYNQKFKNRATLTVDNPTNTAYMELSSLRSEDTAFYYCVNGNPWLAYWGQGTLVTVSSASTKGPSVFPLAPSSKSTSGGTAALGCLVKDYFPEPVTVSWNSGALTSGVHTFPAVLQSSGLYSLSSVVTVPSSSLGTQTYICNVNHKPSNTKVDKKVEPKSCGGGGSGGGGSGGGGSGGGGSDIQMTQSPSSLSASVGDRVTITCRASQDIKNYLNWYQQKPGKAPKLLIYYSSTLLSGVPSRFSGSGSGTDFTLTISSLQPEDFATYYCQQSITLPPTFGCGTKVEIKGQPREPQVCTLPPSRDELTKNQVSLSCAVKGFYPSDIAVEWESNGQPENNYKTTPPVLDSDGSFFLVSKLTVDKSRWQQGNVFSCSVMHEALHNHYTQKSLSLSPGK
notes: as for B1
B2: binds.
